Reference: the supplement of paper PMC12042874
± gives the uncertainty stated by the source.

Assay: amyloid nucleation score (Sup35N fusion, yeast selection) (log enrichment); library NNK2; higher = more nucleation; inactive = no reads after selection
Summary of the method: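 Peptides of 20 random codons, each fused to Sup35N, were expressed in psi-negative yeast. Cells were induced with 100 μM copper sulfate for 24 hours and grown 7 days at 30°C on medium lacking adenine and uracil, and plasmid inserts before and after selection were Illumina-sequenced. Nucleation scores are DiMSum log enrichments of output over input reads, centred on the mode score of non-aggregating sequences, and sequences under 100 input reads were excluded.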

Row | Substance | amyloid nucleation score
1 | FCEICPKYYALFEEGQLSGR | 3.62 ± 0.068
2 | RFILLFTCGKGFFMHTCSRG | 3.86 ± 0.11
3 | IYKILLLLAGRRGFDCLVFS | -0.926 ± 0.74
4 | GFVDELLNKRRLMCLIKTWK | 0.179 ± 0.44
5 | LFVLLSDKTHSYSYAECQPM | 3.65 ± 0.052
6 | KYEIRAASARGGSNVCFCIG | 0.691 ± 0.19
7 | FFFVFVGDVR | 2.08 ± 0.15
8 | CPLRLTRGLKCRVYINWEHQ | 0.354 ± 0.48
9 | KSQRKVIGTLLKVYWPWGCM | 0.654 ± 0.25
10 | FFFKSSLLR | 0.241 ± 0.8
11 | YVFIYESPYSSRSCPNALVS | -0.011 ± 0.46
12 | LTLCSFRCTKLMR | 1.11 ± 0.25
13 | LYGGCRKWFTRTCFSFHMYR | 0.562 ± 0.81
14 | YLSAAVKTEVV | 0.619 ± 0.37
15 | LFVCMTLGYSLGKSHFDNGS | 4.1 ± 0.044
16 | SFIHFPFWFILHNRALTRRV | 0.057 ± 1.1
17 | FIRHSTSALGP | 0.889 ± 0.43
18 | CIGSLNVAVW | 0.152 ± 0.21
19 | CGVASSHFDGLLNR | 2.58 ± 0.12
20 | LFVIWNTCVNYFLDVLSGHN | 3.86 ± 0.12
21 | GVCVKRFFKLVTAGECNSKG | -0.13 ± 0.4
22 | SYDPSVMAVGSH | -0.135 ± 0.33

Row | Substance | amyloid nucleation score
23 | IKHKLWRAYYCSESTLSVLS | -1.03 ± 0.28
24 | VLWVS | inactive
25 | TDVAY | 0.258 ± 0.2
26 | FRGIPCLCHVIM | 5.81 ± 0.081
27 | FSMRSKQGRTFTRLQDGSGL | 4 ± 0.046
28 | CRISVIFLYFSFFY | inactive
29 | DYTSVSMVIHVCKRL | 5.59 ± 0.097
30 | RYWTSIGCGR | 0.589 ± 0.32
31 | NDIMYSVSSYCWWSFRSSVF | 2.06 ± 0.15
32 | LVFRGAVCDITRAG | -0.682 ± 0.76
33 | LFCTRMEVSLLGFWNSYAEL | -0.01 ± 0.45
34 | VFMTSLY | -1.06 ± 0.49
35 | VVGTPCL | 0.542 ± 0.41
36 | VGSNKGAIIGLMIVGGVVIA | 3.11 ± 0.16
37 | KWRAFYPSTGSLRVEILSF | -1.22 ± 1.1
38 | LFDFGETVVIVLHVHSMLCL | 4.41 ± 0.092
39 | GYKHLIRVQWSKTYSSTGFC | -0.356 ± 1.1
40 | TDAGNKGNTTCNRRSACLFY | 0.669 ± 0.74
41 | ETTNTQVNAIVRNFGQ | 0.002 ± 0.55
42 | KVFSPHRNWWVI | 0.553 ± 0.57
43 | YSAVKCFPYRLPLNYAQIGA | 0.358 ± 0.53
44 | QMYATSFNIDCVLFLSLFEM | 6.27 ± 0.07

Row | Substance | amyloid nucleation score
45 | PYALWGIRESHLFQKCWSGM | 3.33 ± 0.099
46 | LAVLGVVDNIV | 0.516 ± 0.4
47 | GSLAGAKL | -0.588 ± 0.76
48 | FPGLDGNQMFRLC | 0.42 ± 0.66
49 | AAACAGIKFLLTFTFGFRTW | inactive
50 | DHRLYQSFKALRVPSVVLRG | -0.766 ± 0.79
51 | SACIILI | 1.65 ± 0.15
52 | TRSMSSAPADCVASGT | -0.512 ± 0.76
53 | GHSCLMVNNACSLDGHEESV | 1.16 ± 0.39
54 | RCKAAGCIHLVFFVCRDACC | 0.605 ± 0.66
55 | PLLTMWDLDSGVSGFCQVRS | -0.477 ± 0.35
56 | FKAVS | -0.291 ± 1.1
57 | FMSVFTSAFLISHIMLV | 0.21 ± 1
58 | LAALR | 0.159 ± 0.3
59 | FFFDDSKVYQNWEEDVEGNQ | -0.389 ± 0.34
60 | VTRPMDDTRVRVSNCVDWII | 0.511 ± 0.38
61 | VLYGVCIVCCSWSMTSC | 0.959 ± 0.6
62 | ACSRANLAKKLRGMWRYSAF | -0.199 ± 1.1
63 | RCAMRVSARMSRSTGISRLR | 1.64 ± 0.15
64 | HSLMQLYLVIFLAHFQSYGL | 0.604 ± 0.44
65 | GNTGCGVRACSGVCGKMDLV | 0.8 ± 0.27
66 | CNPIGIMHN | inactive

Row | Substance | amyloid nucleation score
67 | SYTCSS | -0.211 ± 0.48
68 | RLNVISIQNAIMRVVRTKRF | 3.61 ± 0.12
69 | DCLYRLSIKSSKAMVSHECR | -0.142 ± 0.79
70 | SAMSCPTKSAELRKCSYHPS | 0.246 ± 0.27
71 | DLIGPYRVLRFCRWV | 2.8 ± 0.099
72 | NKYYLSNLMTCLAQKLSSSG | 0.053 ± 1.1
73 | TSSFIRLNYSNALLNKFWSN | -1.99 ± 0.75
74 | GRNPVFWWQVLVATSRLNGQ | 1.05 ± 0.32
75 | INFGWCFYMTRRWVCGMVFR | 0.106 ± 1
76 | TGVIAYVRKVGDLSSCVYSC | 3.6 ± 0.14
77 | IVCWTMVVDLIVDQMLTAYR | 1.03 ± 0.28
78 | KCVVKELYWLWFHLSSVNLY | -1.23 ± 1.1
79 | RLSVLD | 1.34 ± 0.21
80 | MYRRSSWHLWWSKELFDAIY | -0.723 ± 0.79
81 | MGGNLCVPRTLYSAIWLLSR | -1.23 ± 0.44
82 | REGPCGELGELPVLKRRGKH | 0.986 ± 0.41
83 | ATVFF | 0.768 ± 0.28
84 | WGAEILAHVGPSHEYSR | -0.175 ± 0.49
85 | LYLYPAMFVSWLSGLPTRFC | -0.406 ± 1.1
86 | MCRYCLVWYGFLNYSTLTRG | -1.37 ± 0.62
87 | THLLVVWFDNRYF | 0.978 ± 0.74
